Laboratory results as given in patent US20250325630A1, “HOMODIMER FUSION PROTEINS FOR TREATING ATOPIC DERMATITIS” (Intervet Inc., priority 2021, published 2025).

What was measured:
canine IL-4 (cIL-4) = target: T1, canine IL-4 (cIL-4) (Canis lupus familiaris, UniProt O77762); test: Binding kinetics of cFc fusion proteins to canine IL-4 (OCTET HTX)
T1 sequence (O77762 25-132): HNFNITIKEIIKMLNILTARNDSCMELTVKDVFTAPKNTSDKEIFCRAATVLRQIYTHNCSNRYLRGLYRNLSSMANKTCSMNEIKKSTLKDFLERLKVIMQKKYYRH
Protocol: (§1) The binding constants for the cFc fusion proteins provided in Tables 3 and 4 below, were determined using OCTET® HTX. All kinetics measurements were performed by OCTET® HTX using SA® biosensors and DATA ACQUISITION® 12.0 software. 10 μg/mL of biotin-labeled antigen, either canine IL-4 (cIL-4) or canine IL-13 (cIL-13) were loaded onto the SAR biosensors for 120 seconds. Next, the biosensors were placed into 1×pH 7.0 TBS/Casein buffer for 60 seconds for the blocking phase. For the association phase, antigen loaded biosensors were placed into 2-fold serial dilutions from 1 μM down to 15.6 nM of the wild-type, the bispecific, or the FcRn-mutant receptor Fc-fusions that recognized the cIL-4 or cIL-13 antigen in 1×pH 7.0 TBS/Casein buffer for 30 seconds. The last well was buffer alone and that sensor was used for reference sensor subtraction. Finally, the biosensors were placed into 1×pH 7.0 TBS/Casein buffer for 120 seconds for the dissociation phase. The results were then analyzed using Data Analysis 12.0 software and the curves were fitted using a 1:1 binding model.

canine IL-13 (cIL-13) = target: T2, canine IL-13 (cIL-13) (Canis lupus familiaris, UniProt Q9N0W9); test: Binding kinetics of cFc fusion proteins to canine IL-13 (OCTET HTX); details: Table 4, cIL-13; for ka: association rate constant; for kdis: dissociation rate constant
T2 sequence (Q9N0W9 19-131): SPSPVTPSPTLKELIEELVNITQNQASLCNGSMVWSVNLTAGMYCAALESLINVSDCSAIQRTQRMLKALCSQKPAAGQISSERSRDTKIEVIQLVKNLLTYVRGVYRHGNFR
Protocol: as §1

[1] = system: cIL-13 mediated STAT6 phosphorylation; test: Inhibition of cIL-13 mediated STAT6 phosphorylation in DH82 cells (AlphaLISA p-STAT6); type: cell-based, canine; details: for concentration inhibiting 50% of the cIL-13 mediated STAT6 phosphorylation (in words): DH82 cells
Protocol: The ability of the cFc fusion proteins to block the signaling mediated by IL-4 and IL-13, as measured by inhibition of STAT-6 phosphorylation in DH82 cells, were determined as follows:
• 1. Actively growing DH82 cells: Merck Animal Health Lot: 628-011, 24Oct14 • 2. HBSS, 1×: Corning, Catalog 21-022-CM • 3. AlphaLISA p-STAT6 (Tyr641) Assay Kit: Perkin Elmer, Catalog ALSU-PST6-A10K • 4. Recombinant canine IL-4: R&D Systems, Catalog: 752-CL/CF • 5a. cFc fusion protein samples for IL-4 studies • (i) cIL4Rα-cFc • (ii) cIL4Rα-IL13Rα1 ZW1-cFc • (iii) cIL4Rα-IL13Rα2 ZW1-cFc • 5b. cFc fusion protein samples for IL-13 studies: • (i) CIL13Rα1-cFc • (ii) cIL13Rα2-cFc • (iii) cIL4R-IL13Rα1 ZW1-cFc • (iv) cIL4R-IL13Rα2 ZW1-cFc • 6. Perkin Elmer® Envision
• 1. Tissue culture plates were seeded with […] DH82 cells per well (40 μL with the density of 2.5×10^5 cells/mL) and incubated at 37° C. for 2 hours. • 2. The cFc fusion proteins were pre-diluted to 2000 nM (500 nM final concentration in the well) and then 3-fold serially diluted in Hank's Balanced Salt Solution (HBSS). The proteins were added by transferring 20 μL/well to the respective locations on the tissue culture plates containing DH82 cells. • 3. (a) Canine IL-4 was diluted to 10 ng/ml in HBSS (2.5 ng/ml in the well) and 20 μL was added to each well of the plates. The plates were incubated for 15 min at 37° C.; or alternatively • (b) Canine IL-13 was diluted to 20 ng/ml in HBSS (5 ng/ml in the well) and 20 μL was added to each well of the plates. The plates were incubated for 15 min at 37° C. • 4. The plates were removed from the incubator and 20 μL of 4× Lysis buffer from the AlphaLISA® p-STAT-6 Assay Kit was added to each well of the plate. The plate was agitated on a plate shaker with 350 rpm for 10 minutes at room temperature. • 5. The Acceptor Mix was prepared from the AlphaLISA® p-STAT6 Assay Kit and 15 μL per well was added to 30 μL of the cell lysate in 96-well ½ Area Plates. The plates were sealed, agitated for 2 minutes at 350 rpm, and then incubated for 1 hour at room temperature. • 6. The Donor Mix was prepared from the AlphaLISA® p-STAT6 Assay kit under subdued laboratory lighting and 15 μL per well was added to each plate. The plates were sealed, covered with foil, agitated for 2 minutes at 350 rpm, and then incubated for 1 hour at room temperature. • 7. The plates were read using the AlphaScreen settings on the Perkin Elmer® En Vison.

B1: cIL4Rα-IL13Rα1_ZW1-cFc: bispecific heterodimer of cIL-4Rα-cIgGB-Fc-ZW-A (SEQ ID NO: 18) and cIL-13Rα1-cIgGB-Fc-ZW-B (SEQ ID NO: 19) (protein)
chain 1: VKVLHEPSCFSDYISTSVCQWKMDHPTNCSAELRLSYQLDFMGSENHTCVPENREDSVCVCSMPIDDAVEADVYQLDLWAGQQLLWSGSFQPSKHVKPRTPGNLTVHPNISHTWLLMWTNPYPTENHLHSELTYMVNVSNDNDPEDFKVYNVTYMGPTLRLAASTLKSGASYSARVRAWAQTYNSTWSDWSPSTTWLNYYEPWEQHLPPKRENGRVPRPPDCPKCPAPEMLGGPSVFIFPPKPKDTLLIARTPEVTCVVVDLDPEDPEVQISWFVDGKQMQTAKTQPREEQFNGTYRVVSVLPIGHQDWLKGKQFTCKVNNKALPSPIERTISKARGQAHQPSVYVYPPSREELSKNTVSLTCLIKDFFPPDIDVEWQSNGQQEPESKYRTTPPQLDEDGSYALVSKLSVDKSRWQRGDTFICAVMHEALHNHYTQESLSHSPGK
chain 2: GGVAAPTETQPPVTNLSVSVENLCTVIWTWDPPEGASPNCTLRYFSHFDNKQDKKIAPETHRSKEVPLNERICLQVGSQCSTNESDNPSILVEKCTPPPEGDPESAVTELQCVWHNLSYMKCTWLPGRNTSPDTNYTLYYWHSSLGKILQCEDIYREGQHIGCSFALTNLKDSSFEQHSVQIVVKDNAGKIRPSFNIVPLTSHVKPDPPHIKRLFFQNGNLYVQWKNPQNFYSRCLSYQVEVNNSQTETNDIFYVEEAKCQNSEFEGNLEGTICFMVPGVLPDTLNTVRIRVRTNKLCYEDDKLWSNWSQAMSIGENTDPTPKRENGRVPRPPDCPKCPAPEMLGGPSVFIFPPKPKDTLLIARTPEVTCVVVDLDPEDPEVQISWFVDGKQMQTAKTQPREEQFNGTYRVVSVLPIGHQDWLKGKQFTCKVNNKALPSPIERTISKARGQAHQPSVYVLPPSREELSKNTVSLLCLIKDFFPPDIDVEWQSNGQQEPESKYLTWPPQLDEDGSYFLYSKLSVDKSRWQRGDTFICAVMHEALHNHYTQESLSHSPGK
modifications: heterodimer
Canine IL-4 (cIL-4)
  loss in affinity for cIL-4 (KD times higher) relative to unmodified cIL-4Rα-cFc homodimer: about 10,000 fold
Canine IL-4 (cIL-4); Table 3, association rate constant, cIL-4, ND = Binding Not Detected
  ka: 237000 M⁻¹ s⁻¹
Canine IL-4 (cIL-4); Table 3, dissociation rate constant, cIL-4, ND = Binding Not Detected
  kdis: 0.00234 s⁻¹
Canine IL-13 (cIL-13)
  ka: 94400 M⁻¹ s⁻¹
  kdis: 3.91e-05 s⁻¹
[1]
  IC50 for cIL-13 mediated STAT6 phosphorylation, fold higher than for cIL-13Rα2-cFc: about 20 fold
  concentration inhibiting 50% of the cIL-13 mediated STAT6 phosphorylation (in words): well above nanomolar concentrations

B2: cIL-13Rα1-cFc: homodimer of canine IL-13Rα1 ECD, IgGB hinge region and IgGB cFc fusion protein, SEQ ID NO: 6 (protein)
chain: GGVAAPTETQPPVTNLSVSVENLCTVIWTWDPPEGASPNCTLRYFSHFDNKQDKKIAPETHRSKEVPLNERICLQVGSQCSTNESDNPSILVEKCTPPPEGDPESAVTELQCVWHNLSYMKCTWLPGRNTSPDTNYTLYYWHSSLGKILQCEDIYREGQHIGCSFALTNLKDSSFEQHSVQIVVKDNAGKIRPSFNIVPLTSHVKPDPPHIKRLFFQNGNLYVQWKNPQNFYSRCLSYQVEVNNSQTETNDIFYVEEAKCQNSEFEGNLEGTICFMVPGVLPDTLNTVRIRVRTNKLCYEDDKLWSNWSQAMSIGENTDPTPKRENGRVPRPPDCPKCPAPEMLGGPSVFIFPPKPKDTLLIARTPEVTCVVVDLDPEDPEVQISWFVDGKQMQTAKTQPREEQFNGTYRVVSVLPIGHQDWLKGKQFTCKVNNKALPSPIERTISKARGQAHQPSVYVLPPSREELSKNTVSLTCLIKDFFPPDIDVEWQSNGQQEPESKYRTTPPQLDEDGSYFLYSKLSVDKSRWQRGDTFICAVMHEALHNHYTQESLSHSPGK
modifications: homodimer
Canine IL-13 (cIL-13)
  ka: 58000 M⁻¹ s⁻¹
  kdis: 0.000312 s⁻¹
[1]
  concentration inhibiting 50% of the cIL-13 mediated STAT6 phosphorylation (in words): well above nanomolar concentrations

B3: cIL4Rα-IL13Rα2_ZW1-cFc: bispecific heterodimer of cIL-4Rα-cIgGB-Fc-ZW-A (SEQ ID NO: 18) and cIL-13Rα2-cIgGB-Fc-ZW-B (SEQ ID NO: 20) (protein)
chain 1: VKVLHEPSCFSDYISTSVCQWKMDHPTNCSAELRLSYQLDFMGSENHTCVPENREDSVCVCSMPIDDAVEADVYQLDLWAGQQLLWSGSFQPSKHVKPRTPGNLTVHPNISHTWLLMWTNPYPTENHLHSELTYMVNVSNDNDPEDFKVYNVTYMGPTLRLAASTLKSGASYSARVRAWAQTYNSTWSDWSPSTTWLNYYEPWEQHLPPKRENGRVPRPPDCPKCPAPEMLGGPSVFIFPPKPKDTLLIARTPEVTCVVVDLDPEDPEVQISWFVDGKQMQTAKTQPREEQFNGTYRVVSVLPIGHQDWLKGKQFTCKVNNKALPSPIERTISKARGQAHQPSVYVYPPSREELSKNTVSLTCLIKDFFPPDIDVEWQSNGQQEPESKYRTTPPQLDEDGSYALVSKLSVDKSRWQRGDTFICAVMHEALHNHYTQESLSHSPGK
chain 2: SMLSNAEIKVNPPQDFEIVDPGYLGYLSLQWQPPLFPDNFKECTIEYELKYRNIDSENWKTIITKNLHYKDGFDLNKGIEAKINTLLPAQCTNGSEVRSSWAETTYWTSPQGNRETKIQDMDCVYYNWQYLVCSWKPGMGVHFDTNYQLFYWYEGLDHSAECTDYIKVNGKNMGCRFPYLESSDYKDFYICVNGSSESQPIRPSYFIFQLQNIVKPMPPDYLSLTVKNSEEINLKWNMPKGPIPAKCFIYEIEFTEDGTTWVTTTVENEIQITRTSNESQKLCFLVRSKVNIYCSDDGIWSEWSDEQCWKGDIWKETPKRENGRVPRPPDCPKCPAPEMLGGPSVFIFPPKPKDTLLIARTPEVTCVVVDLDPEDPEVQISWFVDGKQMQTAKTQPREEQFNGTYRVVSVLPIGHQDWLKGKQFTCKVNNKALPSPIERTISKARGQAHQPSVYVLPPSREELSKNTVSLLCLIKDFFPPDIDVEWQSNGQQEPESKYLTWPPQLDEDGSYFLYSKLSVDKSRWQRGDTFICAVMHEALHNHYTQESLSHSPGK
modifications: heterodimer
Canine IL-4 (cIL-4); approximate values
  binding constant (KD) with cIL-4: undetectable
Canine IL-13 (cIL-13)
  ka: 32600 M⁻¹ s⁻¹
  kdis: 0.000135 s⁻¹
[1]
  IC50 for cIL-13 mediated STAT6 phosphorylation, fold higher than for cIL-13Rα2-cFc: about 200 fold
  concentration inhibiting 50% of the cIL-13 mediated STAT6 phosphorylation (in words): well above nanomolar concentrations
